Test results as given in FireProtDB (doi:10.1016/j.jmb.2003.10.041).

B1: Bacteriorhodopsin, P02945 (parent)
chain: MLELLPTAVEGVSQAQITGRPEWIWLALGTALMGLGTLYFLVKGMGVSDPDAKKFYAITTLVPAIAFTMYLSMLLGYGLTMVPFGGEQNPIYWARYADWLFTTPLLLLDLALLVDADQGTILALVGADGIMIGTGLVGALTKVYSYRFVWWAISTAAMLYILYVLFFGFTSKAESMRPEVASTFKVLRNVTVVLWSAYPVVWLIGSEGAGIVPLNIETLLFMVLDVSAKVGFGLILLRSRAIFGEAEAPEPSAGDGAAATSD

Variants of: B1
Details: Halobacterium salinarum (strain ATCC 700922 / JCM 11081 / NRC-1); pH 6; 25 °C; SDS; Absorbance; sodium phosphate 10 mM; reversible: yes (90%); structure 2BRD; whole UniProt chain shown
In the case of M69A, the “ddG of mutation (higher = less stable)” value is reported as -1.4 kcal/mol. In the case of L61A, the “ddG of mutation (higher = less stable)” value is reported as 0.1 kcal/mol. With P63A the “ddG of mutation (higher = less stable)” value was -0.1 kcal/mol. In the case of M73A, the “ddG of mutation (higher = less stable)” value is reported as 0.8 kcal/mol. With Y56A the “ddG of mutation (higher = less stable)” value was 1.3 kcal/mol. In the case of D51A, the “ddG of mutation (higher = less stable)” value is reported as 0.5 kcal/mol. For F67A, the “ddG of mutation (higher = less stable)” value was 1 kcal/mol. For T59A, the “ddG of mutation (higher = less stable)” value was 2.2 kcal/mol. In the case of L75A, the “ddG of mutation (higher = less stable)” value is reported as -0.5 kcal/mol. In the case of T60A, the “ddG of mutation (higher = less stable)” value is reported as 1 kcal/mol. For K53A, the “ddG of mutation (higher = less stable)” value was 0.3 kcal/mol. In the case of D49A, the “ddG of mutation (higher = less stable)” value is reported as 0.9 kcal/mol. In the case of L74A, the “ddG of mutation (higher = less stable)” value is reported as -0.7 kcal/mol. With L71A the “ddG of mutation (higher = less stable)” value was -0.3 kcal/mol. With T68A the “ddG of mutation (higher = less stable)” value was 0.1 kcal/mol. For V62A, the “ddG of mutation (higher = less stable)” value was -0.7 kcal/mol. For I58A, the “ddG of mutation (higher = less stable)” value was 1.9 kcal/mol. For I65A, the “ddG of mutation (higher = less stable)” value was 1.4 kcal/mol. For P50A, the “ddG of mutation (higher = less stable)” value was 0.2 kcal/mol. With F55A the “ddG of mutation (higher = less stable)” value was 1.6 kcal/mol. For K54A, the “ddG of mutation (higher = less stable)” value was 1.6 kcal/mol. For S72A, the “ddG of mutation (higher = less stable)” value was -0.1 kcal/mol.
